Patent publication US20140221282A1, “LONG DURATION DUAL HORMONE CONJUGATES” (priority 2011, published 2014)
Ends that are not written are not given here. Y‑shaped mPEG40KD = Y-shaped methoxy-PEG of 40 kDa attached to the Lys side chain; mPEG40KD = methoxy-PEG of 40 kDa

These binders were tested against amylin receptor of rat nucleus accumbens membranes (rat) (assay: competition with 125I-rat amylin, rat nucleus accumbens membranes).
amylin receptor of rat nucleus accumbens membranes (rat), sequence (P32214 other isoform, or with tags, fused parts or gaps, chain 1 of 2): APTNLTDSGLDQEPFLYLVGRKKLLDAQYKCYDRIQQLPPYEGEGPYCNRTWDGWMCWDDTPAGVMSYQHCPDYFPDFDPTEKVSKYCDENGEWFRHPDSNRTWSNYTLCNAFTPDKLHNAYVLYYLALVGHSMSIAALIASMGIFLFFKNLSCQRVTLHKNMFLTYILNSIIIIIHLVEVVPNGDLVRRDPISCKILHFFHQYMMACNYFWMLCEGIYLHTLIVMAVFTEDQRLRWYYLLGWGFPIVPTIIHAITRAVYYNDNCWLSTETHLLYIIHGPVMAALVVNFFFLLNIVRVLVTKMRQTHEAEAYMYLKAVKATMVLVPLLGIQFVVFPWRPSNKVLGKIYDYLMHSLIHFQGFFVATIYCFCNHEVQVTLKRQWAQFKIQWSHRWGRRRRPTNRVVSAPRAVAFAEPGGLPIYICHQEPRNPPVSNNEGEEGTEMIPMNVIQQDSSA
amylin receptor of rat nucleus accumbens membranes (rat), sequence (Q9JJ74 27-148, chain 2 of 2, further chain): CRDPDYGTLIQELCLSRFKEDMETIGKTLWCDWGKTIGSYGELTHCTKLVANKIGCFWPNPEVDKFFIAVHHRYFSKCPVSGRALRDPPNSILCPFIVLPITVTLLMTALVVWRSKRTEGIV

Binder	IC50
mPEG40KD-CNTATCATQRLANFLVRSSNNLGPVLPPTNVGSNTY-NH2 (ends and bridges not checked) [mPEG40KD-Cmpd 50]	78 nM
KCNTATCATQRLANFLVRSSNNLGPK(Y‑shaped mPEG40KD)LPPTNVGSNTY-NH2 (ends and bridges not checked) [[K^26(Y-shaped-mPEG40KD)]-Cmpd 53]	470 nM
KCNTATCATQRLANFLVRSSNNLGPK(mPEG40KD)LPPTNVGSNTY-NH2 (ends and bridges not checked) [[K^26(mPEG40KD)]-Cmpd 53]	66 nM
CNTATCATQRLANFLVRSSNNLGPVLPPTNVGSNTY-NH2 (ends and bridges not checked) [[des-Lys^1]-Cmpd 49]	0.42 nM
